Experimental data reported in article PMC7878476, “Regulatory inter-domain interactions influence Hsp70 recruitment to the DnaJB8 chaperone” (Nature Communications, 2021).
Where “and” joins values, the source holds several entries; their conditions need not be identical. Equal values may be shown once.

B1: DnaJB8–mClover3 fusion protein (natural protein, human, UniProt Q8NHS0 1-232, looked up)
chain: MANYYEVLGVQASASPEDIKKAYRKLALRWHPDKNPDNKEEAEKKFKLVSEAYEVLSDSKKRSLYDRAGCDSWRAGGGASTPYHSPFDTGYTFRNPEDIFREFFGGLDPFSFEFWDSPFNSDRGGRGHGLRGAFSAGFGEFPAFMEAFSSFNMLGCSGGSHTTFSSTSFGGSSSGSSGFKSVMSSTEMINGHKVTTKRIVENGQERVEVEEDGQLKSVTVNGKEQLKWMDSK
notes: also called DnaJB8–Clover; source: HEK293T polyclonal lentiviral cell line, isolated from lysate with His-tagged anti-GFP nanobody on Ni-NTA resin
B2: recombinant full-length DnaJB8 (wild type) (natural protein, human, UniProt Q8NHS0 1-232, looked up)
chain: B1 chain
notes: pET-29b; no tag removal is described; also called WT DnaJB8; source: E. coli BL-21 (DE3), purified from the insoluble fraction (8 M guanidinium HCl, Ni-NTA), dialysed, lyophilised
B3: isolated C-terminal domain of DnaJB8, CTD_(170–232) (domain or fragment, human, UniProt Q8NHS0 170-232, looked up)
chain: GGSSSGSSGFKSVMSSTEMINGHKVTTKRIVENGQERVEVEEDGQLKSVTVNGKEQLKWMDSK
notes: source: E. coli BL-21 (DE3), purified (TALON, Superdex 200)
B4: FITC-labeled JD_(1–82) of DnaJB8 (domain or fragment, human, UniProt Q8NHS0 1-82, looked up)
chain: MANYYEVLGVQASASPEDIKKAYRKLALRWHPDKNPDNKEEAEKKFKLVSEAYEVLSDSKKRSLYDRAGCDSWRAGGGASTP
modifications: FITC (labeled with 10× FITC-maleimide; site not stated)
notes: DnaJB8, human, J-domain, residues 1-82; Same construct as m4, with the fluorescein label; also called JD_(1–82)-FITC; JD_(1–82)–FITC; source: E. coli BL-21 (DE3), purified (TALON, Superdex 200), labeled with FITC-maleimide, excess dye removed by Superdex 75

How the values were obtained:
[1] = biological target: the molecule itself; experiment: cross-linking; DnaJB8–Clover held on anti-GFP nanobody/Ni-NTA beads, 1× PBS, 57 mM ADH + 36 mM DMTMM, 1 min at 37 °C; eluate analysed by MS and western blot
[2] = biological target: the molecule itself; experiment: dynamic light scattering; 1.2 mg/mL in 1× PBS, 1 mM DTT, pH 7.4, room temperature, time course over about 20 h; 150 mM or 285 mM NaCl for full-length DnaJB8
[3] = biological target: B4; experiment: fluorescence polarisation; 0.2 μM FITC-JD_(1–82) with a titration of Hsp70 or CTD_(170–232) (150–0 μM) in 1× PBS, 1 mM TCEP, pH 7.4; one site-specific binding fit; settings: both partners purified
[4] = biological target: T1, human Hsp70 (HspA1A) (human, UniProt P0DMV8 1-641); experiment: as above; settings: both partners purified
T1 construct: HspA1A (Hsp70), human; HspA1A gene cloned into pMCSG7; no tag cleavage is described; source: E. coli BL-21 (DE3), purified (TALON, HiTrap Q anion exchange, Superdex 200)
T1 sequence (P0DMV8 whole entry): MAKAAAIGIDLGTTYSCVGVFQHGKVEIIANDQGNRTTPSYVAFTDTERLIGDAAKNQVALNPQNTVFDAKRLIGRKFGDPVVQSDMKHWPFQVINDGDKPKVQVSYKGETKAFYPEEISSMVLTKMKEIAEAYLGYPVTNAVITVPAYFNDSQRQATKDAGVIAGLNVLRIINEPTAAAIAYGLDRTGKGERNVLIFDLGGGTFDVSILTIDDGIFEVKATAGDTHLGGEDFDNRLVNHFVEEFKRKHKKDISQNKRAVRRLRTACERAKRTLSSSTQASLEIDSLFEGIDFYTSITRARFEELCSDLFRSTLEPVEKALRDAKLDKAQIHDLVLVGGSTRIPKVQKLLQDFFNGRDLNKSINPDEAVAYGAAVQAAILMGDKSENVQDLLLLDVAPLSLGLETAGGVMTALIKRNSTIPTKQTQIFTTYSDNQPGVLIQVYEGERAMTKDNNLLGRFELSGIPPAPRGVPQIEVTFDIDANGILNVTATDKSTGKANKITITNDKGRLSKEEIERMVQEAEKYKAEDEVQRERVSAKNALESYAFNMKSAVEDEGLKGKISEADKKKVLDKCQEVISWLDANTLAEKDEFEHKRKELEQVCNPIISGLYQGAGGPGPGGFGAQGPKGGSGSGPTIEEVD

Question: Does B1 bind [1]?
Answer: binds

Question: Does B2 bind [2]?
Answer: binds

Question: With B3 as the binder, how does the Kd [3] read?
Answer: 4.4 µM and 6.21 µM and 4.43 µM

Question: B4 was tested. Which Kd [4] did it give?
Answer: 0.413 ± 0.057 µM
